Results: patent publication US20100055121A1 (US Dept. of Health and Human Services, published 2010)

Assays:
[1] = target: T1, HLA-A0201 molecules on T2 (HLA-A2+) cells (human); assay: T2 cells loaded with 25 µM peptide, brefeldin A chase, HLA-A02 flow cytometry over time
T1 construct: whole, on cells; MHC class I molecule on T2 cells; also called HLA-A2.1
Experimental: (§1) HLA-A2 binding assay. […] T2 cells (1×10⁶) in serum-free Iscove's modified Dulbecco's medium were incubated in the presence of various concentrations of each peptide, in 24-well culture plates at 37° C. with 5% CO₂. After 18 hours in culture, T2 cells were harvested, washed with 1× phosphate buffered saline (PBS) (Invitrogen) and stained with 20 μl of a FITC-conjugated anti-HLA-A02-specific monoclonal antibody (MAb) (One Lambda, Inc., Canoga Park, Calif.). A FITC-conjugated IgG2a MAb (BD Biosciences, San Jose, Calif.) was used as an isotype control. Data acquisition and analysis were conducted on a FACSCalibur™ system using the CELLQueSt™ software (BD Biosciences). Results were expressed as mean fluorescence intensity (MFI) collected on a log scale. […] Assuming first order kinetics, the log₂ of MFI/MFI₀ (MFI is the fluorescence at each time point and MFI₀ the initial fluorescence at time 0) was plotted against time (minutes). The decay rate constant was calculated as the slope of the linear regression for each curve and the half-life of each peptide-MHC complex was calculated as […].
In silico-predicted epitopes were then assessed for binding to the MHC molecules in a cell-based assay. TAP-deficient T2 (HLA-A2+) cells were incubated in the presence of 25 μM of each peptide and subsequently tested for cell surface MHC-stabilization by bound peptides.

[2] = target: T1, HLA-A0201 molecules on T2 (HLA-A2+) …; assay: T2 cell surface HLA-A02 stabilisation, flow cytometry, 25 µM peptide
Experimental: as §1
In silico-predicted epitopes were then assessed for binding to the MHC molecules in a cell-based assay. […]

| Binder | half-life of MHC-peptide complex [1] [h] | binding result [2] |
| --- | --- | --- |
| WLLPGTSTL (Synthesized at >90% purity) [Brachyury peptide T-p2] | 8.57 |  |
| AMYSFLLDFV (Synthesized at >90% purity) [Brachyury peptide T-p4] | 5.2 |  |
| SQYPSLWSV [Brachyury peptide T-p1] |  | binds |
| RLIASWTPV (Synthesized at >90% purity) [Brachyury peptide T-p3] | 3.75 |  |
